Reference: the supplement of paper PMC5998384

Legend:
HeLa Kyoto [1] = assay: solubility change mitosis vs G1/S (difference of NP-40 vs SDS log2 ratios) (log2 ratio difference); higher = more soluble in mitosis
HeLa Kyoto [2] = assay: solubility in G1/S (NP-40 vs SDS abundance) (log2 ratio); higher = more soluble; details: cell cycle stage: G1/S
HeLa Kyoto [3] = assay: thermal stability score vs G1/S (z-score of summed log2 fold changes over temperatures); higher = more thermally stable than in G1/S
[4] = cell cycle stage: early G1 (4.5 h after nocodazole release)
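Throughout, for solubility change mitosis vs G1/S (difference of NP-40 vs SDS log2 ratios): synchronized HeLa Kyoto cells (double thymidine block for G1/S, nocodazole release for mitosis), protein amounts in NP-40 versus SDS lysates quantified by mass spectrometry, three biological replicates.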
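Throughout, for solubility in G1/S (NP-40 vs SDS abundance): HeLa Kyoto cells arrested at G1/S by double thymidine block, proteins quantified by TMT10plex mass spectrometry in mild NP-40 versus SDS extracts, three biological replicates.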
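Throughout, for thermal stability score vs G1/S (z-score of summed log2 fold changes over temperatures): synchronized HeLa Kyoto cells, proteins quantified by TMT10plex mass spectrometry, three biological replicates, mitosis taken 0.5 h after nocodazole release, G1/S directly after double thymidine block.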

| Sequence | solubility change mitosis (log2) (HeLa Kyoto [1]) | solubility in G1/S (log2) (HeLa Kyoto [2]) | thermal stability score (HeLa Kyoto [3]; [4]) | thermal stability score (HeLa Kyoto [3]; cell cycle stage: mitosis) |
| --- | --- | --- | --- | --- |
| MAAPAPGAGAASGGAGCSGGGAGAGAGSGSGAAGAGGRLPSRVLELVFSYLELSELRSCALVCKHWYRCLHGDENSEVWRSLCARSLAEEALRTDILCNLPSYKAKIRAFQHAFSTNDCSRNVYIKKNGFTLHRNPIAQSTDGARTKIGFSEGRHAWEVWWEGPLGTVAVIGIATKRAPMQCQGYVALLGSDDQSWGWNLVDNNLLHNGEVNGSFPQCNNAPKYQIGERIRVILDMEDKTLAFERGYEFLGVAFRGLPKVCLYPAVSAVYGNTEVTLVYLGKPLDG [FBXO45] | -0.17 | 0.344 | -0.0815 | -0.292 |
| MAAVVAATALKGRGARNARVLRGILAGATANKASHNRTRALQSHSSPEGKEEPEPLSPELEYIPRKRGKNPMKAVGLAWYSLYTRTWLGYLFYRQQLRRARNRYPKGHSKTQPRLFNGVKVLPIPVLSDNYSYLIIDTQAQLAVAVDPSDPRAVQASIEKEGVTLVAILCTHKHWDHSGGNRDLSRRHRDCRVYGSPQDGIPYLTHPLCHQDVVSVGRLQIRALATPGHTQGHLVYLLDGEPYKGPSCLFSGDLLFLSGCGRTFEGNAETMLSSLDTVLGLGDDTLLWPGHEYAEENLGFAGVVEPENLARERKMQWVQRQRLERKGTCPSTLGEERSYNPFLRTHCLALQEALGPGPGPTGDDDYSRAQLLEELRRLKDMHKSK [PNKD] | -0.135 | -0.0413 | 0.265 | -0.394 |
| MAELDQLPDESSSAKALVSLKEGSLSNTWNEKYSSLQKTPVWKGRNTSSAVEMPFRNSKRSRLFSDEDDRQINTRSPKRNQRVAMVPQKFTATMSTPDKKASQKIGFRLRNLLKLPKAHKWCIYEWFYSNIDKPLFEGDNDFCVCLKESFPNLKTRKLTRVEWGKIRRLMGKPRRCSSAFFEEERSALKQKRQKIRLLQQRKVADVSQFKDLPDEIPLPLVIGTKVTARLRGVHDGLFTGQIDAVDTLNATYRVTFDRTGLGTHTIPDYEVLSNEPHETMPIAAFGQKQRPSRFFMTPPRLHYTPPLQSPIIDNDPLLGQSPWRSKISGSDTETLGGFPVEFLIQVTRLSKILMIKKEHIKKLREMNTEAEKLKSYSMPISIEFQRRYATIVLELEQLNKDLNKVLHKVQQYCYELAPDQGLQPADQPTDMRRRCEEEAQEIVRHANSSTGQPCVENENLTDLISRLTAILLQIKCLAEGGDLNSFEFKSLTDSLNDIKSTIDASNISCFQNNVEIHVAHIQSGLSQMGNLHAFAANNTNRD [LIN9] | 0.143 | 0.183 | 2.27 | 3.4 |
| MAGENFATPFHGHVGRGAFSDVYEPAEDTFLLLDALEAAAAELAGVEICLEVGSGSGVVSAFLASMIGPQALYMCTDINPEAAACTLETARCNKVHIQPVITDLVKGLLPRLTEKVDLLVFNPPYVVTPPQEVGSHGIEAAWAGGRNGREVMDRFFPLVPDLLSPRGLFYLVTIKENNPEEILKIMKTKGLQGTTALSRQAGQETLSVLKFTKS [N6AMT1] | 0.0523 | 0.483 | 0.341 | 0.273 |
| MAKREDSPGPEVQPMDKQFLVCSICLDRYQCPKVLPCLHTFCERCLQNYIPAQSLTLSCPVCRQTSILPEQGVSALQNNFFISSLMEAMQQAPDGAHDPEDPHPLSVVAGRPLSCPNHEGKTMEFYCEACETAMCGECRAGEHREHGTVLLRDVVEQHKAALQRQLEAVRGRLPQLSAAIALVGGISQQLQERKAEALAQISAAFEDLEQALQQRKQALVSDLETICGAKQKVLQSQLDTLRQGQEHIGSSCSFAEQALRLGSAPEVLLVRKHMRERLAALAAQAFPERPHENAQLELVLEVDGLRRSVLNLGALLTTSATAHETVATGEGLRQALVGQPASLTVTTKDKDGRLVRTGSAELRAEITGPDGTRLPVPVVDHKNGTYELVYTARTEGELLLSVLLYGQPVRGSPFRVRALRPGDLPPSPDDVKRRVKSPGGPGSHVRQKAVRRPSSMYSTGGKRKDNPIEDELVFRVGSRGREKGEFTNLQGVSAASSGRIVVADSNNQCIQVFSNEGQFKFRFGVRGRSPGQLQRPTGVAVDTNGDIIVADYDNRWVSIFSPEGKFKTKIGAGRLMGPKGVAVDRNGHIIVVDNKSCCVFTFQPNGKLVGRFGGRGATDRHFAGPHFVAVNNKNEIVVTDFHNHSVKVYSADGEFLFKFGSHGEGNGQFNAPTGVAVDSNGNIIVADWGNSRIQVFDSSGSFLSYINTSAEPLYGPQGLALTSDGHVVVADAGNHCFKAYRYLQ [TRIM3] | -0.138 | -0.0387 | 0.13 | 0.0555 |
| MAPARLFALLLFFVGGVAESIRETEVIDPQDLLEGRYFSGALPDDEDVVGPGQESDDFELSGSGDLDDLEDSMIGPEVVHPLVPLDNHIPERAGSGSQVPTEPKKLEENEVIPKRISPVEESEDVSNKVSMSSTVQGSNIFERTEVLAALIVGGIVGILFAVFLILLLMYRMKKKDEGSYDLGKKPIYKKAPTNEFYA [SDC4] | 0.235 | -0.523 | 2.66 | 4.92 |
| MAQVSINNDYSEWDLSTDAGERARLLQSPCVDTAPKSEWEASPGGLDRGTTSTLGAIFIVVNACLGAGLLNFPAAFSTAGGVAAGIALQMGMLVFIISGLVILAYCSQASNERTYQEVVWAVCGKLTGVLCEVAIAVYTFGTCIAFLIIIGDQQDKIIAVMAKEPEGASGPWYTDRKFTISLTAFLFILPLSIPREIGFQKYASFLSVVGTWYVTAIVIIKYIWPDKEMTPGNILTRPASWMAVFNAMPTICFGFQCHVSSVPVFNSMQQPEVKTWGGVVTAAMVIALAVYMGTGICGFLTFGAAVDPDVLLSYPSEDMAVAVARAFIILSVLTSYPILHFCGRAVVEGLWLRYQGVPVEEDVGRERRRRVLQTLVWFLLTLLLALFIPDIGKVISVIGGLAACFIFVFPGLCLIQAKLSEMEEVKPASWWVLVSYGVLLVTLGAFIFGQTTANAIFVDLLA [SLC38A7] | -0.113 | -0.213 | -4.08 | -4.26 |
| MATLVELPDSVLLEIFSYLPVRDRIRISRVCHRWKRLVDDRWLWRHVDLTLYTMRPKVMWHLLRRYMASRLHSLRMGGYLFSGSQAPQLSPALLRALGQKCPNLKRLCLHVADLSMVPITSLPSTLRTLELHSCEISMAWLHKQQDPTVLPLLECIVLDRVPAFRDEHLQGLTRFRALRSLVLGGTYRVTETGLDAGLQELSYLQRLEVLGCTLSADSTLLAISRHLRDVRKIRLTVRGLSAPGLAVLEGMPALESLCLQGPLVTPEMPSPTEILSSCLTMPKLRVLELQGLGWEGQEAEKILCKGLPHCMVIVRACPKESMDWWM [FBXL12] | -0.183 | -0.129 | -0.861 | -0.543 |
| MAVSERRGLGRGSPAEWGQRLLLVLLLGGCSGRIHQLALTGEKRADIQLNSFGFYTNGSLEVELSVLRLGLREAEEKSLLVGFSLSRVRSGRVRSYSTRDFQDCPLQKNSSSFLVLFLINTKDLQVQVRKYGEQKTLFIFPGLLPEAPSKPGLPKPQATVPRKVDGGGTSAASKPKSTPAVIQGPSGKDKDLVLGLSHLNNSYNFSFHVVIGSQAEEGQYSLNFHNCNNSVPGKEHPFDITVMIREKNPDGFLSAAEMPLFKLYMVMSACFLAAGIFWVSILCRNTYSVFKIHWLMAALAFTKSISLLFHSINYYFINSQGHPIEGLAVMYYIAHLLKGALLFITIALIGSGWAFIKYVLSDKEKKVFGIVIPMQVLANVAYIIIESREEGASDYVLWKEILFLVDLICCGAILFPVVWSIRHLQDASGTDGKVAVNLAKLKLFRHYYVMVICYVYFTRIIAILLQVAVPFQWQWLYQLLVEGSTLAFFVLTGYKFQPTGNNPYLQLPQEDEEDVQMEQVMTDSGFREGLSKVNKTASGRELL [GPR108] | -0.16 | 0.04 | -3.36 | -3.48 |
| MDANSKDKPPETKESAMNNAGNASFILGTGKIVTPQKHAELPPNPCTPDTFKSPLNFSTVTVEQLGITPESFVRNSAGKSSSYLKKCRRRSAVGARGSPETNHLIRFIARQQNIKNARKSPLAQDSPSQGSPALYRNVNTLRERISAFQSAFHSIKENEKMTGCLEFSEAGKESEMTDLTRKEGLSACQQSGFPAVLSSKRRRISYQRDSDENLTDAEGKVIGLQIFNIDTDRACAVETSVDLSEISSKLGSTQSGFLVEESLPLSELTETSNALKVADCVVGKGSSDAVSPDTFTAEVSSDAVPDVRSPATPACRRDLPTPKTFVLRSVLKKPSVKMCLESLQEHCNNLYDDDGTHPSLISNLPNCCKEKEAEDEENFEAPAFLNMRKRKRVTFGEDLSPEVFDESLPANTPLRKGGTPVCKKDFSGLSSLLLEQSPVPEPLPQPDFDDKGENLENIEPLQVSFAVLSSPNKSSISETLSGTDTFSSSNNHEKISSPKVGRITRTSNRRNQLVSVVEESVCNLLNTEVQPCKEKKINRRKSQETKCTKRALPKKSQVLKSCRKKKGKGKKSVQKSLYGERDIASKKPLLSPIPELPEVPEMTPSIPSIRRLGSGYFSSNGKLEEVKTPKNPVKRKDLLRHDPDLHMHQGYDKYDVSEFCSYIKSSSSLGNATSDEDPNTNIMNINENKNIPKAKNKSESENEPKAGTDSPVSCASVTEERVASDSPKPALTLQQGQEFSAGGQNAENLCQFFKISPDLNIKCERKDDFLGAAEGKLQCNRLMPNSQKDCHCLGDVLIENTKESKSQSEDLGRKPMESSSVVSCRDRKDRRRSMCYSDGRSLHLEKNGNHTPSSSVGSSVEISLENSELFKDLSDAIEQTFQRRNSETKVRRSTRLQKDLENEGLVWISLPLPSTSQKAKRRTICTFDSSGFESMSPIKETVSSRQKPQMAPPVSDPENSQGPAAGSSDEPGKRRKSFCISTLANTKATSQFKGYRRRSSLNGKGESSLTALERIEHNGERKQ [CDCA2] | 0.243 | -0.581 | 0.00387 | -1.54 |
| MDEETRHSLECIQANQIFPRKQLIREDENLQVPFLELHGESTEFVGRAEDAIIALSNYRLHIKFKESLVNVPLQLIESVECRDIFQLHLTCKDCKVIRCQFSTFEQCQEWLKRLNNAIRPPAKIEDLFSFAYHAWCMEVYASEKEQHGDLCRPGEHVTSRFKNEVERMGFDMNNAWRISNINEKYKLCGSYPQELIVPAWITDKELESVSSFRSWKRIPAVIYRHQSNGAVIARCGQPEVSWWGWRNADDEHLVQSVAKACASDSRSSGSKLSTRNTSRDFPNGGDLSDVEFDSSLSNASGAESLAIQPQKLLILDARSYAAAVANRAKGGGCECPEYYPNCEVVFMGMANIHSIRRSFQSLRLLCTQMPDPGNWLSALESTKWLHHLSVLLKSALLVVHAVDQDQRPVLVHCSDGWDRTPQIVALAKLLLDPYYRTIEGFQVLVEMEWLDFGHKFADRCGHGENSDDLNERCPVFLQWLDCVHQLQRQFPCSFEFNEAFLVKLVQHTYSCLFGTFLCNNAKERGEKHTQERTCSVWSLLRAGNKAFKNLLYSSQSEAVLYPVCHVRNLMLWSAVYLPCPSPTTPVDDSCAPYPAPGTSPDDPPLSRLPKTRSYDNLTTACDNTVPLASRRCSDPSLNEKWQEHRRSLELSSLAGPGEDPLSADSLGKPTRVPGGAELSVAAGVAEGQMENILQEATKEESGVEEPAHRAGIEIQEGKEDPLLEKESRRKTPEASAIGLHQDPELGDAALRSHLDMSWPLFSQGISEQQSGLSVLLSSLQVPPRGEDSLEVPVEQFRIEEIAEGREEAVLPIPVDAKVGYGTSQSCSLLPSQVPFETRGPNVDSSTDMLVEDKVKSVSGPQGHHRSCLVNSGKDRLPQTMEPSPSETSLVERPQVGSVVHRTSLGSTLSLTRSPCALPLAECKEGLVCNGAPETENRASEQPPGLSTLQMYPTPNGHCANGEAGRSKDSLSRQLSAMSCSSAHLHSRNLHHKWLHSHSGRPSATSSPDQPSRSHLDDDGMSVYTDTIQQRLRQIESGHQQEVETLKKQVQELKSRLESQYLTSSLHFNGDFGDEVTSIPDSESNLDQNCLSRCSTEIFSEASWEQVDKQDTEMTRWLPDHLAAHCYACDSAFWLASRKHHCRNCGNVFCSSCCNQKVPVPSQQLFEPSRVCKSCYSSLHPTSSSIDLELDKPIAATSN [MTMR3] | -0.15 | -0.000164 | -0.332 | -0.143 |
| MDGLRQRVEHFLEQRNLVTEVLGALEAKTGVEKRYLAAGAVTLLSLYLLFGYGASLLCNLIGFVYPAYASIKAIESPSKDDDTVWLTYWVVYALFGLAEFFSDLLLSWFPFYYVGKCAFLLFCMAPRPWNGALMLYQRVVRPLFLRHHGAVDRIMNDLSGRALDAAAGITRNVLQVLARSRAGITPVAVAGPSTPLEADLKPSQTPQPKDK [REEP6] | -0.143 | -0.206 | 0.664 | -0.943 |
